Measured values published in the supplement of paper PMC10126150.
± gives the standard deviation of the averaged measurements.

test system: ATP; assay: switch fluorescence ratio, 500 uM ATP over buffer (Cy3 cluster intensity, sum of 5 cycles each) (fold (ratio)); higher = stronger signal-on switching upon ATP binding; sequences stand for … in TCGTCGGCAGCGTCAGATGTGTATAAGAGACAGTTTTTTTTTTTTTTTTTTTTTTTTT…TC; settings: aptamer strand: ATP DNA aptamer (quencher-CACCTGGGGGAGTATTGCGGAGGAAGG + anchor), 100 nM annealed; ATP concentration: 500 uM
Outline: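 Five buffer/ATP imaging cycles were run on Cy3-labelled switching-strand clusters on a modified Illumina MiSeq flow-cell, with NaOH stripping and re-annealing between cycles. In each cycle, clusters annealed to 100 nM quencher-labelled ATP aptamer were imaged in selection buffer, then after 15 min with 500 uM ATP at 22 °C. Per cluster, the fluorescence ratio is summed target-cycle over summed buffer-cycle Cy3 intensity, averaged per switch-domain sequence. Only clusters within 100-1000 RFU were kept.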
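Note: ATP exposure 15 min at 22 °C before imaging.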

Row | Sequence | switch fluorescence ratio
1 | GTGGGGGG | 0.999 ± 0.029
2 | AGCATTACGT | 2.02 ± 0.089
3 | CATTTCCTGA | 1.02 ± 0.038
4 | TGAGAACCCG | 1.02 ± 0.051
5 | GATTCAGGAC | 1.04 ± 0.012
6 | TTCGAATGGT | 0.9724 ± 0.0062
7 | GGTAAGATCG | 0.9785 ± 0.0077
8 | GAATTAATTT | 1 ± 0.04
9 | GGTGGGGCAC | 0.999 ± 0.041
10 | AATTTAAGGT | 0.977 ± 0.022
11 | TGGGGAATTT | 0.987 ± 0.023
12 | TTGGGGTGAG | 0.981 ± 0.022
13 | CGTGAGGTGA | 1.01 ± 0.035
14 | ACTATCGGGA | 1.02 ± 0.037
15 | CATTCGGGGC | 1.11 ± 0.038
16 | AGGTCTAAGG | 1 ± 0.022
17 | CGCGGGTATG | 1.05 ± 0.026
18 | TGCTAGGAG | 0.995 ± 0.043
19 | TCTCCCTTGT | 1.03 ± 0.024
20 | TTGTGCGCAG | 1 ± 0.029
21 | TAGGAGGGTT | 0.987 ± 0.026
22 | TAAGGCTTAT | 0.988 ± 0.016

Row | Sequence | switch fluorescence ratio
23 | TATTGATTGG | 0.9977 ± 0.0062
24 | TTTTCCCGAA | 0.967 ± 0.026
25 | TTTTCGGCTC | 1.04 ± 0.048
26 | TCGGATTATG | 0.9669 ± 0.0066
27 | GAGTTAGTAG | 0.966 ± 0.02
28 | GGGCCGTTGC | 0.948 ± 0.029
29 | AGGGGCTATT | 1.01 ± 0.014
30 | ACGGGCTGTG | 1.01 ± 0.054
31 | TTTCATATGC | 0.995 ± 0.073
32 | GGAGTAGCAG | 1.02 ± 0.074
33 | GGGGACCAGT | 0.9845 ± 0.0031
34 | GCTGTCAGCG | 1.02 ± 0.024
35 | ATGTTGGGTA | 0.982 ± 0.019
36 | ATACTCATAT | 1.01 ± 0.015
37 | CAATTGTGGG | 0.996 ± 0.026
38 | ACGCGTCGGC | 1.06 ± 0.013
39 | TGGGATGCAA | 1.04 ± 0.035
40 | TGTTGGAGAG | 1.02 ± 0.02
41 | GCGACGGGAA | 1.34 ± 0.09
42 | CTAGTATGTT | 0.979 ± 0.02
43 | GCGGGGTTTG | 1.01 ± 0.015
44 | CAGTGTTATC | 1.01 ± 0.013

Row | Sequence | switch fluorescence ratio
45 | GGGAGGGAGT | 1.01 ± 0.024
46 | GAGGTCGAAA | 0.98 ± 0.013
47 | GTTTCAAGCG | 1.02 ± 0.025
48 | TTATCAGGTT | 1 ± 0.031
49 | ATATCGTATT | 1 ± 0.013
50 | CCCATTTTGT | 0.991 ± 0.02
51 | CGGTGACGCG | 0.982 ± 0.028
52 | GAGTTGGGAT | 1.01 ± 0.011
53 | GCTTGGGTTC | 1 ± 0.018
54 | TATTGACATT | 1.016 ± 0.0071
55 | TGTCCCAAGC | 1.18 ± 0.03
56 | TAGTACGGGC | 1 ± 0.044
57 | TGTGGCATTA | 0.992 ± 0.023
58 | GGTTATTTGT | 0.992 ± 0.041
59 | GGGTGTACTT | 0.991 ± 0.023
60 | GTGGGCGGGA | 1.07 ± 0.14
61 | TTAATGCTGG | 1 ± 0.033
62 | CGAGTGGGGT | 1.01 ± 0.043
63 | TTACTTGGGT | 1.02 ± 0.052
64 | TGTGTATGGT | 1.01 ± 0.022
65 | GGCCGATTTT | 0.9813 ± 0.0042
66 | GGGTTTTTCT | 0.99 ± 0.036

Row | Sequence | switch fluorescence ratio
67 | GGGTATGGTT | 0.998 ± 0.028
68 | TTAAGTGTGA | 0.982 ± 0.013
69 | TGCATTTTGT | 0.989 ± 0.018
70 | GATTGTGTG | 0.998 ± 0.03
71 | AATGGCCGGC | 0.987 ± 0.014
72 | ATATGGGAAG | 1 ± 0.048
73 | CCGAAATTTT | 1.05 ± 0.016
74 | GTAAATATGG | 0.987 ± 0.024
75 | TTTGCCTTTT | 1 ± 0.042
76 | CGTCTGATAG | 0.99 ± 0.033
77 | GAGAGGAGGC | 1.07 ± 0.063
78 | ATGGGCATTA | 1 ± 0.017
79 | CGAAATTTGG | 1.03 ± 0.044
80 | CTGGAGGATA | 1.12 ± 0.014
81 | TATTGGCTTG | 0.985 ± 0.013
82 | TTGTTGCCGT | 0.984 ± 0.065
83 | ACATTCGTCC | 1.37 ± 0.063
84 | GGGGTAGCGG | 0.92645 ± 0.0002
85 | AAGGGGGGA | 1.01 ± 0.072
